These are literature values, as cited in publication PMC10950897, “VCF1 is a p97/VCP cofactor promoting recognition of ubiquitylated p97-UFD1-NPL4 substrates” (Nature Communications, 2024).

This data set concerns the target p97 (Homo sapiens) (UniProt P55072).

Chain of p47 (Q9UNZ2 whole entry): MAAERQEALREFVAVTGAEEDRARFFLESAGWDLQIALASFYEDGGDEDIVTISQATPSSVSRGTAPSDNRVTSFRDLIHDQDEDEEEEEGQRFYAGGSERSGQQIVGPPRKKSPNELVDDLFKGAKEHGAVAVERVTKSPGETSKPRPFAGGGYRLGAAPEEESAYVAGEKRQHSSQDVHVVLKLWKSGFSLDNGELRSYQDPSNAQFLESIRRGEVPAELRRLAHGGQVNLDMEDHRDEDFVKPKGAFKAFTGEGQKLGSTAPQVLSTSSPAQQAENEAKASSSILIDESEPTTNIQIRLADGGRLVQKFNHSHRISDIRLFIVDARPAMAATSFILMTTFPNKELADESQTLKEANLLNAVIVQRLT
Chain of p97 (Homo sapiens) (P55072 2-806): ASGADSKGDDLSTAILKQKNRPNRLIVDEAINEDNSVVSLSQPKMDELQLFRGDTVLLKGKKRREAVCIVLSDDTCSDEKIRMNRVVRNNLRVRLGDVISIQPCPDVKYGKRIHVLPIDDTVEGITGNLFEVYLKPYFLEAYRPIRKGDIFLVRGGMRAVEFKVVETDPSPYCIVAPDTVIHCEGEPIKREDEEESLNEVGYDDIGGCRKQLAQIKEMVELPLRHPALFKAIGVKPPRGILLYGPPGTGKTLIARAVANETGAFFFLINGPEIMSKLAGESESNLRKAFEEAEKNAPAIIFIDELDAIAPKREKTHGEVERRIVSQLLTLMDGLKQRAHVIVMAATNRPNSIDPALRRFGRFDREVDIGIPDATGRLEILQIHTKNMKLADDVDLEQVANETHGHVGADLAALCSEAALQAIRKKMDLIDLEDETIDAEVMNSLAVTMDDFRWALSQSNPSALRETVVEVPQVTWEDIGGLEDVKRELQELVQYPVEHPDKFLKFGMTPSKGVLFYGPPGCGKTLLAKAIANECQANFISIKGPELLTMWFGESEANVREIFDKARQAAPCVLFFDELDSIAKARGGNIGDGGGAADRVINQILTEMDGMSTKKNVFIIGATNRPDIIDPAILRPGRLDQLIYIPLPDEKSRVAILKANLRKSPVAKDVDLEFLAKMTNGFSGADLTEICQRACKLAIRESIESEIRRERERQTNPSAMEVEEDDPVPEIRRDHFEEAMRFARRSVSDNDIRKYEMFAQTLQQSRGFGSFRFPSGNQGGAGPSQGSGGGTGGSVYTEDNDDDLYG

For p47 (from UniProt Q9UNZ2), the Kd was 0.35 µM.
